B1: HDV Ribozyme (parent)
chain: GGCCGGCAUGGUCCCAGCCUCCUCGCUGGCGCCGGCUGGGCAACAUUCCGAGGGGACCGUCCCCUCGGUAAUGGCGAAUGGGACCCA

Variants of: B1
Assay: self-cleavage, relative activity (ratio to wild type); higher = more cleavage; co-transcriptional

Variant | self-cleavage
A78C G82A | 0.106
A43C G52U | 0.402
C24U G34C | 0.135
C19G C33U | 0.151
G38A U69G | 0.166
G2C C18G | 0
C13U U46C | 0.138
A51G C64A | 0.47
G35A G76U | 0.902
G50U U60C | 0.938
U12A G82C | 0.302
C15G C24G | 0.196
U37A U46A | 0.185
U37A U46C | 0.0852
G5A C33A | 0.219
G2U G55A | 0.0732
U9C A43U | 0.378
U12A C13G | 0
G29C C36G | 0.0536
G5A C13U | 0.107
C30U C49A | 0.698
C3G U47C | 0.54
C24U G31C | 0.0615
U72C U79C | 0.277

Variant | self-cleavage
G40C A70C | 0.208
C14U U27G | 1.11
U12G G55C | 0.95
C22A C62A | 0.339
U9A G80C | 0.189
C24G A43U | 0.0237
G35A G68U | 0.584
U23A C48G | 0.898
C58A U72C | 0.802
A45G C49U | 1.24
G17U C57U | 0.415
C15U G53U | 0.767
G2C C75G | 0.0314
G59A A83U | 0.59
C14U C36A | 0.128
C24G G28C | 0.214
A56G C75G | 0.175
G11A G74U | 0.123
U9A C33A | 0.185
C15U A45G | 0.8
G38C G80U | 0.0314
A42U C61U | 0.445
G50C G76C | 1.08
U23A C44A | 0.612

Variant | self-cleavage
G34A C86G | 0.121
C30G G80A | 0.141
C19U G50A | 0.245
G55A A78G | 0.698
G6C U9G | 0.208
G2A A16G | 0.237
C21A G67C | 0.137
C7U U69G | 0.855
G11A G31C | 0.0997
G10C C13A | 0
G17A C66G | 0.652
A16C C33U | 0.688
C15U C24G | 0
C58U G74A | 0.462
A43U U46G | 0.185
G17C G39A | 0.113
U47C G73U | 0.225
G68C C84A | 1.06
C32G U69C | 0.0639
G52A A56G | 0.801
C41U A71U | 0.897
C3A C7U | 0.188
G34U C41G | 0.0723
C49A C62G | 0.128

Variant | self-cleavage
C32A U65C | 0
C7A A71U | 0.462
C14A G39U | 0.222
C36U G73C | 0.161
U12G G67U | 0.731
C15G G28A | 0.0627
U65G G73U | 0.47
C18A U72G | 0.19
C33A G35C | 0.133
C4A C33A | 0
C13U G67A | 0.572
C24U G80U | 0.102
C3G C48G | 0.695
U27A C75U | 0.0519
G5A C84U | 0.117
G17A A56C | 0.847
G2A G40A | 0.136
A56U G76A | 0.939
G25C A42U | 0
A8G G68U | 0.855
G17C C75A | 0.0536
G25A A56G | 0.227
A42U C64A | 0.639
C19G A51C | 0.0369

Variant | self-cleavage
G34U C84A | 0.176
G1C C63U | 0.0898
G74A G81C | 0.218
C18G G55U | 0.0811
U46G A77G | 0.415
G1C G50C | 0.342
C57U C62U | 0.799
C49U G52A | 0.96
U37A C49U | 0.155
C4A A77C | 0.0462
U12A C41A | 0.437
G2U U27A | 0.0767
C22G C85U | 0.0845
G31C G34A | 0.0963
C24G G81U | 0.0707
U60C A71U | 0.665
G17C G40A | 0.19
G29A C49A | 0.136
A43C C66G | 0.364
A42C G82A | 0.107
C19U G76C | 0.277
G67A G74U | 0.534
G5C U65C | 0.222
C63G U65G | 0.277

Variant | self-cleavage
A8C C36A | 0
A8C C36G | 0
G67A C85A | 0.844
A8U C26U | 0.86
U9C A70C | 0.997
G31C C57A | 0.282
C24U U69A | 0.617
A8G C26A | 1.11
G5C U47C | 0.0594
C4A C26G | 0.348
A16G U37C | 0.997
U27A G29C | 0.158
G6A C75U | 0.193
G1U C14U | 0.434
G25C U46G | 0
A70U A78G | 0.7
C30U U65C | 0.78
C18U G55A | 0.919
C49A U65A | 0.751
G10C C48G | 1.17
G38C A42U | 0.208
C21U C24U | 0.0287
G29A A83G | 0.0611
G17U G28U | 0.0923

Variant | self-cleavage
A43G G80A | 0.115
C32U G59A | 0.963
G59A G74U | 0.561
G50U G54A | 0.85
C63U G76C | 0.997
U20G C24U | 0
C32U A42C | 0.233
C63G A78C | 0.101
C49U C57U | 1.18
U37C C57U | 0.875
G1A C61U | 0.26
C75U C86A | 0.111
U47G C58A | 1.48
G17C G28A | 0.0449
G50A A70G | 0.763
C3A A43C | 0.0504
G6U C15U | 0.646
G2U A43U | 0.0866
G38C G59A | 0.199
U37A C66G | 0.158
C3U G31A | 0.329
A51U U65A | 0.966
C7G A70U | 0.475

Source: the RNAGym collection of RNA variant scans (doi:10.7554/elife.80360)
